Test results published in patent US20200055939A1 (Genentech, published 2020).
Where a chain is given by its changes, count along the chain named.

T1: I236A
T1 construct: % monomer 92.49; also called MICA*008.mIgG2a I236A
T1 chain: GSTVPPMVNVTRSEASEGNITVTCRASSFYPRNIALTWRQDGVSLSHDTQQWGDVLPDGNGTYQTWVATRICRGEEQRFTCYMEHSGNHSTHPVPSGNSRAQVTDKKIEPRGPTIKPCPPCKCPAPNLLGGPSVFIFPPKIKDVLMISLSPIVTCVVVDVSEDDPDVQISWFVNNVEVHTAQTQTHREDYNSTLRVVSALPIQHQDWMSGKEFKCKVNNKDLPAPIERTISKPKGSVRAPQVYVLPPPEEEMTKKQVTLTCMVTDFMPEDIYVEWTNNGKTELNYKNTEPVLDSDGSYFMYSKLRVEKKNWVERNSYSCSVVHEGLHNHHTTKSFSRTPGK

T2: E285A
T2 construct: % monomer 83.78; also called MICA*008.mIgG2a E285A
T2 chain: T1 chain with A35I, E84A

T3: N289A
T3 construct: % monomer 89.74; also called MICA*008.mIgG2a N289A
T3 chain: T1 chain with A35I, N88A

T4: S291A
T4 construct: % monomer 83.21; also called MICA*008.mIgG2a S291A
T4 chain: T1 chain with A35I, S90A

T5: P294A
T5 construct: % monomer 89.16; also called MICA*008.mIgG2a P294A
T5 chain: T1 chain with A35I, P93A

T6: P296A
T6 construct: % monomer 92.3; also called MICA*008.mIgG2a P296A
T6 chain: T1 chain with A35I, P95A

T7: S247A
T7 construct: % monomer 94.87; also called MICA*008.mIgG2a S247A
T7 chain: T1 chain with A35I, S46A

B1: 6F8.7 Fab (Fab, V domains shown)
VH: DVQLQGSGPGLVKPSQSLSLTCSVTGYSITNDYYWNWIRQFPGNKLEWMGFISFGGSNNYNPSLKNRISITRDTSKNQFFLKLSSVTTEDTATYYCARYDGRGAWFAYWAQGTLVTVSA
VL: DIQMTQSPASLSASVGETVTITCRASGNIHNYLAWYQQKQGKSPQLLVYDAITLADGVPSRFSGSGSGTQYSLKINSLQPEDFGNYYCQHFWSFPLTFGAGTKVEIK
B2: 7D4.6 Fab (Fab, V domains shown)
VH: DVQLQESGPGLVKPSQSLSLTCTVTGYSITSDYAWNWIRQFPRNKLEWMGYINYSGTTNYNPSLKSRISITRDTSKNQFFLQLISVTTEDTATYYCSYYRYDGAWFPYWGQGTLVTVSA
VL: B1 VL with D50N, T53M, G64A, N85S
B3: 2E5.2.3 Fab (Fab, V domains shown)
VH: QGQMQQSGAELVKPGASVKLSCKTSGFTFSDNYISWLKQKPGQSLEWIAWIYAGTGGTSYNQKFTAKAQLTVDTSSSTAYMQFSSLTTEDSAIYYCARHDYYGTSGAWFAYWGQGTLVTVSA
VL: DVLMTQTPLSLPVSLGDQASLSCRSSQNIVHINGNTYLEWYLQKPGQSPKLLIYKVSNRFSGVPDRFSGSGSGTDFTLKISRVEAEDLGVYYCFQGSHVPWTFGGGTKVEIK
B4: 1D5 Fab (Fab, V domains shown)
VH: EIQLQQSGPELVKPGASVKVSCKASGYAFTSQNIYWVKQSHGKSLEWIGYIEPYNVVPMYNPKFKGKATLTVDKSSSSAYIHLNSLTSEDSAIYYCARSGSSNFDYWGQGTTLTVSS
VL: EIILTQSPTTMAASPGEKITITCSASSSISSHYLHWYQQKSGFSPKLLIYRTSNLASGVPARFSGSGSGTSYSLTIGTMEAEDVATYYCQQGSSLPLTFGAGTKVEIK
notes: Expressed in E. coli as chimera of murine variable and human constant domains; not shown: human IgG1 CH1 constant domain; human kappa CL constant domain

Molecular target: T1, I236A
Experiment: SPR, Fab over captured MICA*008.mIgG2a Ala variant; KD relative to wild type
B1 showed a fold-decrease in affinity of 1.4. With B2 the fold-decrease in affinity was 1.2. For B3, the fold-decrease in affinity was 0.9.

Molecular target: T2, E285A
Experiment: as above
For B1, the fold-decrease in affinity was 3.9. In the case of B2, the fold-decrease in affinity is reported as 7.9. B3 showed a fold-decrease in affinity of 0.9.

Molecular target: T3, N289A
Experiment: as above
For B1, the fold-decrease in affinity was 1.2. B2 was tested, and the fold-decrease in affinity was 3.5. In the case of B3, the fold-decrease in affinity is reported as 1.1. Binder B4 has a fold-decrease in affinity of 0.2.

Molecular target: T4, S291A
Experiment: as above
B1 was tested, and the fold-decrease in affinity was 2.7. Work on B2 yielded a fold-decrease in affinity of 2.7. For B3, the fold-decrease in affinity was 1.1. B4 was tested, and the fold-decrease in affinity was 1.1.

Molecular target: T5, P294A
Experiment: as above
In the case of B1, the fold-decrease in affinity is reported as 0.9. Work on B2 yielded a fold-decrease in affinity of 1. For B3, the fold-decrease in affinity was 1. With B4 the fold-decrease in affinity was 1.

Molecular target: T6, P296A
Experiment: as above
In the case of B1, the fold-decrease in affinity is reported as 1. For B2, the fold-decrease in affinity was 0.7. B3 was tested, and the fold-decrease in affinity was 0.6. B4 showed a fold-decrease in affinity of 1.9.

Molecular target: T7, S247A
Experiment: as above
In the case of B1, the fold-decrease in affinity is reported as 0.9. B2 was tested, and the fold-decrease in affinity was 0.8. With B3 the fold-decrease in affinity was 1.1. In the case of B4, the fold-decrease in affinity is reported as 0.2.
